Test results: article PMC8224932 (FEBS letters, 2020)
No end group written: not given here. TAMRA = carboxytetramethylrhodamine

What was measured:
[1] = target: T1, ^15N,^13C-labeled Sin3A PAH1 (mouse, UniProt Q60520 119-195); experiment: NMR titration
T1 sequence (looked up): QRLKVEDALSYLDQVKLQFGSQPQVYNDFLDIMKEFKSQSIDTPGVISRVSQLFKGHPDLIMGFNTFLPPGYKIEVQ

GST-tagged Sin3A PAH1 = target: T2, GST-tagged Sin3A PAH1 (mouse, UniProt Q60520 119-195); experiment: fluorescence polarisation
T2 sequence (looked up): T1 sequence (looked up)

| Binder | binding result [1] | Kd (GST-tagged Sin3A PAH1) [µM] |
| --- | --- | --- |
| EYDNYDELVAKSLLNLGKIAED (peptide, UniProt Q9UL68 193-214, looked up) [Myt1L^193−214 SID peptide (released from MBP)] | binds |  |
| {TAMRA}-EYDNYDELVAKSLLNLGKIAED (peptide, UniProt Q9UL68 193-214, looked up) [TAMRA-conjugated Myt1L^193−214 SID peptide] |  | 6 ± 0.9 |
